From paper PMC8983731, “Structural basis for the SUMO protease activity of the atypical ubiquitin-specific protease USPL1” (Nature Communications, 2022)

What was measured:
[1] = target: T1, ∆14-SUMO2 precursor C48S/G93C with dehydroalanine at position 93 (SUMO2-DHA) (human, UniProt P61956 15-95, C48S | G93C, dehydroalanine (DHA) at position 93 (made from Cys93 of G93C with 2,5-dibromohexanediamide)); assay: cross-linking; active site probe assay: protease at 2 μM with SUMO2-DHA at 6 μM, 30 °C, 3 h; formation of the covalent thioether adduct; USPL1 wild type and mutants for 3 h; conditions: both partners purified
T1 construct: SUMO2 precursor, human, with the immature C-terminal Val-Tyr after the di-glycine motif; Cys93 is turned into dehydroalanine, an electrophilic trap that reacts with the active site cysteine of the protease (Cys236 of USPL1); also called SUMO2 DHA precursor; ∆14-Sumo2 DHA; source: E. coli Rosetta (DE3), purified (Ni Sepharose, Resource Q); treated with 2,5-dibromohexanediamide and purified again …

[2] = target: T1, ∆14-SUMO2 precursor C48S/G93C with …; assay: cell-based or functional assay

T1 sequence (P61956 15-95 C48S/G93C): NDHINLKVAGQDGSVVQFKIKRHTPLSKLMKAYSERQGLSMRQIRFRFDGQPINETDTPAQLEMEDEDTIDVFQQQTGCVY

B1: USPL1 catalytic domain Y451F (enzyme, human, UniProt Q5W0Q7 212-514, looked up)
chain: MPLESKCTSFPQALCVQWKNAYALCWLDCILSALVHSEELKNTVTGLCSKEESIFWRLLTKYNQANTLLYTSQLSGVKDGDCKKLTSEIFAEIETCLNEVRDEIFISLQPQLRCTLGDMESPVFAFPLLLKLETHIEKLFLYSFSWDFECSQCGHQYQNRHMKSLVTFTNVIPEWHPLNAAHFGPCNNCNSKSQIRKMVLEKVSPIFMLHFVEGLPQNDLQHYAFHFEGCLYQITSVIQFRANNHFITWILDADGSWLECDDLKGPCSERHKKFEVPASEIHIVIWERKISQVTDKEAACLPL
notes: USPL1, human, catalytic domain Met212-Leu514, point mutant; Made by site-directed mutagenesis of pET28a-USPL1CD; source: E. coli Rosetta (DE3), purified (Ni Sepharose, Resource Q anion exchange); not shown: His tag (from the vector pET28a)
fold decrease of binding against wild type [1]: 4 fold | proteolytic activity against SUMO2 substrates, fold decrease against wild type [2]: 4 fold
